This is an account of results in US20140112930A1 (published 2014).

The target in test [1] is T1, Dimeric Monkey Ang-2FD conjugated to human IgG1 (monkey (Macca fascicularis); human).
T1 construct: also called Monkey Ang-2FD-hFc
The test can be described thus: SPR, captured Ab, RT. The procedure, abridged: (§1)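 Antibody captured on amine-coupled goat anti-mouse IgG, anti-human κ or anti-human IgG polyclonal surfaces on a CM5 chip; antigen binding and dissociation followed in real time at room temperature. KD and complex dissociation half-life derived by kinetic analysis.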
(In general: Surface plasmon resonance follows binding to a sensor surface in real time, without labels.)

For test [2], the target named is T2, Dimeric Mouse Ang-2FD conjugated to human IgG1 (mouse (Mus musculus); human).
T2 construct: also called Mouse Ang-2FD-hFc
In words: SPR, captured Ab, RT. In a few lines:
as §1

For test [3], the target named is T3, Dimeric Human Ang-2FD conjugated to human IgG1 (human).
T3 construct: also called Human Ang-2FD-hFc; hAng-2FD-hFc
In words: SPR, captured Ab, RT. The procedure, abridged:
as §1

For test [4], the target named is T4, wild-type human Ang-2 (hAng-2-WT) (human, UniProt O15123 19-496).
T4 construct: called full-length wild-type; also called Full-length wild-type human Ang-2
T4 sequence: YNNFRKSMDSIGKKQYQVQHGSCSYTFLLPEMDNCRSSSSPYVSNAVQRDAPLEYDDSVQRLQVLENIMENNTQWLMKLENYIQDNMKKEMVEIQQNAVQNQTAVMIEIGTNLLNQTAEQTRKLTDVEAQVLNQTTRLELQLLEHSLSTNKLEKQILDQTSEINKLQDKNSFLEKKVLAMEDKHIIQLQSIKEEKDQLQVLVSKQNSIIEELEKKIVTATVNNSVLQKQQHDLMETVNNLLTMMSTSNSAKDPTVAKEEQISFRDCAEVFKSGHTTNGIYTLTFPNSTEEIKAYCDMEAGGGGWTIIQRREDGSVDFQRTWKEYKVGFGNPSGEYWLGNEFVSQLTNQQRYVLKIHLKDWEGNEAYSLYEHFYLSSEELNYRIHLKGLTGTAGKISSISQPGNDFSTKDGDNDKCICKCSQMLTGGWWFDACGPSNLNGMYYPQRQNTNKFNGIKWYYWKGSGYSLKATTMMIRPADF
In words: SPR, captured Ab.

The target in test [5] is T5, Monomeric hAng-2FD (human, UniProt O15123 282-496).
T5 construct: also called fibrinogen-like domain of human Ang2; Human Ang-2FD
T5 sequence: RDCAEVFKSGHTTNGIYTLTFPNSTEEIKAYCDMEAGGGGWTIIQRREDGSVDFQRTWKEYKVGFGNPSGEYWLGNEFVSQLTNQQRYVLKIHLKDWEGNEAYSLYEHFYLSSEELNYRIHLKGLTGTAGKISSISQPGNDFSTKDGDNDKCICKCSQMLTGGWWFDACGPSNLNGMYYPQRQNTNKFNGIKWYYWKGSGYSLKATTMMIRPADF
In words: SPR, captured Ab.

For test [6], the target named is T1, Dimeric Monkey Ang-2FD conjugated to …. In words: competition ELISA, 16.67 nM Ab, coated hTie-2-mFc. Here is the method: (§2) The plate was then blocked with PBS (Irvine Scientific, Santa Ana, Calif.) containing 0.5% BSA (Sigma-Aldrich Corp., St. Louis, Mo.) for one hour at room temperature. […] Human, mouse or monkey Ang-2FD protein conjugated to human IgG (Ang-2FD-hFc) were added to final concentrations of 2 nM, 8 nM, or 2 nM respectively and incubated for one hour at room temperature. The antibody/Ang-2FD-Fc mixture was then added to the plate containing hTie-2-mFc and incubated for one hour at room temperature. Detection of Ang-2FD-hFc bound to hTie-2-mFc protein was determined with Horse-Radish Peroxidase (HRP) conjugated to a-human IgG antibody (Jackson Immuno Research Lab, West Grove, Pa.) and developed by standard colorimetric response using tetramethylbenzidine (TMB) substrate (BD Biosciences, San Jose, Calif.). Absorbance was read at OD₄₅₀ for 0.1 sec.
For orientation: ELISA stands for enzyme-linked immunosorbent assay.

Test [7] addresses T2, Dimeric Mouse Ang-2FD conjugated to …. In words: competition ELISA, 16.67 nM Ab, coated hTie-2-mFc. Here is the method: as §2
Test [8] deals with T3, Dimeric Human Ang-2FD conjugated to …. In words: competition ELISA, 16.67 nM Ab, coated hTie-2-mFc. Here is the method:
as §2

Test [9] has as its target T6, Biotin-hBA2 (human, biotinylated (sites not given)).
T6 construct: hBA2 consists of two dimers; also called biotinylated hBA2; human bow-Ang2
In words: blocking ELISA, biotin-hBA2 to hTie-2-His, mean of two experiments. How it is done: as §2
For this experiment, human Tie-2 conjugated to a histidine tag (hTie-2-His; SEQ ID NO:526) was used in a similar fashion to the hTie-2-mFc described above. Antibody concentrations from 5 nM were serially diluted three-fold. […] An average IC₅₀ value for each antibody was calculated based on two separate experiments.

The target in test [10] is T7, Mouse Ang-2FD-hFc (mouse (Mus musculus)).
T7 construct: also called dimeric mouse Ang-2FD
In words: blocking ELISA, 16.67 nM antibody, Ang-2FD-hFc to coated hTie-2-mFc. Here is the method:
as §2

The target of test [11] is T8, Human Ang-2FD-hFc (human).
T8 construct: also called dimeric human Ang-2FD; human Ang-2FD protein conjugated to human IgG
Described as above. Here is the method:
as §2

B1: H2M744N (antibody, V domains shown)
VH: QVQLVQSGVEVKKPGASVKVSCKTSGYTFSNNGFSWVRQAPGQGLEWLGWISGYNGNTNYAQKFQGRVTMTTDTSTSTAYMELRTLRSDDTAVYYCARDQDYSNFHWLDPWGQGTLVTVAS
VL: DIQMTQSPSSVSASVGDRVIITCRASQGLSSWLAWYQQKPGTAPKLLIHSASSLQTGVPSRFSGSGSGTEFALTINSLQPEDFGTYYCQQANSFPLTFGGGTRVEIK
Broadly, the Kd is the concentration at which binding is half-saturated. Take B1: the Kd came to 500 pM in [1]; 143 pM in test [2]; 98.9 pM in [3]; 28.9 pM in test [4]; 475 pM in test [5]. Further, the T1/2 in [1] was 4.69 h; in test [2], 3.72 h; in test [3] it was 1.82 h; in test [4], 14.1 h; in test [5] it was 1.49 h. The “Percent Blocking of Ang-2FD Binding to Tie-2” value (from here on “Percent Blocking”) was determined as 95.5% in test [6], 98.4% in test [7] and 99.5% in [8].

B2: H1M728N (antibody, V domains shown)
VH: EVQLVESGGDLVQPGGSLRLSCTASGFTFSKYWMTWVRQAPGRGLEWVANIKEDGNEKYFLDSVKGRFTISRDNAKDLLFLQMNSLRGEDTAVYYCVRDRGIEVAGPFDYWGQGTLVTVSS
VL: DIQMTQSPSTLSASVGDRVTVTCRASQTIINWLAWYQQKPGKAPKLLISKASSLESGVPSRFSGSGSGTEFTLTISSLQPDDFATYYCQQYNRYWTFGQGTMVEIK
The term IC50 denotes the point on the concentration scale where inhibition reaches its midpoint. Consider B2, for which the IC50 in [9] is 14.1 pM.

B3: H2M730N (antibody, V domains shown)
VH: EVQLVESGGGLVQPGGSLRLSCAASGFAFRSYWMTWVRQAPGKGLEWVANIQQDGNDKYYVDSVKGRFTISRDNAKNSLYLQMNSLRAEDTAVYYCARDTGIAEAGPFDYWGQGTLVTVSS
VL: DIQMTQSPSTLSASVGDRVSITCRASQTIISWLAWYQQKPGKAPRLLIYKASSLESGVPSRFSGSGSGTEFTLTINSLQPDDFATYYCQQYNRYWTFGQGTKVEIK
B3 yielded an IC50 in [9] of 14.6 pM.

B4: H2M742N (antibody, V domains shown)
VH: DVQLLESGGDLVQPGGSLRLSCEASGFTFRNYVMIWVRQAPGKGLEWVSGISNSGGTTHYTDSVKGRFTISRDNSKNTLYLQINSLRAEDTAVYYCAKGYLDTSLIEGNWFDPWGQGTLVTVSS
VL: NIVMTQSPLSLPVTPGEPASISCRSSQSLLHSNGFNYLNWFLQKPGQSPQLLIYLGSNRASGVPDKFSGSGSGTDFTLNINRVEAEDVGIYFCMQTLQTPLTFGGGTKVEIK
Turning to B4, the dissociation constant Kd in test [1] is 6170 pM; in test [2], 610 pM; in test [3], 295 pM; in test [4], 67.9 pM; in test [5], 4810 pM. In addition, the T1/2 in test [1] turned out to be 0.475 h; in [2], 0.513 h; in test [3], 0.633 h; in test [4] it was 7.28 h; in [5], 0.3 h. Further, the “Percent Blocking” value was 94.1% in [6], 98.6% in test [7] and 99.6% in test [8].

B5: H1H707P (antibody, human IgG1, V domains shown)
VH: QVQLVESGGGVVQPGRSLRLSCAASGFTFSSYGMHWVRQAPDKGLEWVAVKWDDGSNKYYADSVKGRFTISRDNSKNTLYLQMNSLRAEDTAVYYCAREGPYDFYSGYGAFDIWGQGTMVTVSS
VL: not shown
notes: Human IgG1
Regarding B5, the figures for the “Percent Blocking” value in test [10] and in test [11] were 93.8% and 95.1%, respectively.

B6: H1M732N (antibody, V domains shown)
VH: EVQLVESGGGLVRPGGSLRLSCAASGFTFTNAWMSWVRQAPGKGLEWIGQIKSKTDGGTIDYAAPVKGRFTVSRDDSENTLFLQMNSLKTEDTAVYYCAGNWNYVDFDYWGQGTLVTVSS
VL: DIQMTQSPSSLSASVGDRVTITCRASQDIRNDLGWYQQKPGKAPKRLIYAASSLQGGVPSRFSGSGSGTEFTLTISSLQPEDFATYYCLQHNSYPFTFGPGTKVDIK
As to B6, the dissociation constant (Kd) in test [1] was 7330 pM; in [2], 1700 pM; in test [3], 484 pM; in test [4], 131 pM; in [5] it was 6130 pM. Also, the T1/2 in [1] stood at 0.402 h; in [2], 0.357 h; in test [3] it was 0.592 h; in test [4], 5.55 h; in test [5] it was 0.312 h. Further, the “Percent Blocking” value in [6] came out at 95.8%; in test [7], 90.9%; in [8], 97.7%.

B7: H1M724N (antibody, V domains shown)
VH: QVQLVESGGGVVQPGRSLRLSCAASGFTLSNYGMHWVRQAPGKGLEWVAVIWHDGSNTYYADSVKGRFTISRDNSKNTLYLQMNSLRAEDTAVYYCTREGLDFWSGYYPNWFDPWGQGTLVTVSS
VL: DIQMTQSPSSLSASVGDRVTITCRASQGIRNDLGWYQQKPGKAPKRLIYAASNLQGGVPSRFSGSGSGTEFTLTISSLQPEDFAAYYCLQHNIYPLTFGGGTKVEIK
With B7, it took 9.72 pM to reach half-maximal inhibition in test [9] (IC50).

B8: H2M749N (antibody, V domains shown)
VH: QVQLVESGGGVVQPGRSLRLSCAASGFTFSSYGMHWVRQAPGKGLEWVAVIWYDEFNKYYADSVKGRFTISRDNSKNTLYLQMNSLRAEDTAVYYCARERESGYSYGFDYWGQGTLVTVSS
VL: EIVMTQSPATLSVSPGERATLSCRAGQSVSSNLAWYQQKPGQAPRLLIYGASTRATGIPARFSGSGSGTEFTLTISSLQSEDFAVYYCQQYNNWWTFGQGTKVEIK
notes: also called H1M749N; H1M749
Turning to B8, the dissociation constant Kd in test [1] was determined as 1500 pM; in test [2] it was 529 pM; in test [3], 165 pM; in [4] it was 49 pM; in test [5] it was 1380 pM. For the same molecule, the T1/2 in [1] turned out to be 0.682 h; in test [2], 0.425 h; in [3], 0.715 h; in [4], 7.98 h; in test [5] it was 0.465 h. Besides, the “Percent Blocking” value in test [6] was found to be 97.4%; in [7], 97.3%; in [8], 99.5%.

B9: H2M743N (antibody, V domains shown)
VH: EVQLLESGGGLVQPGGSLRLSCAASGFTFRKYAMSWVRQAPGKGLEWVSVISVSGGNTYYADSVKGRFTISRDNSKNTLYLQLNSLRAEDTAVYYCAKDLTDIVLMVYVDYWGQGTLVTVSS
VL: DIQMTQSPSSVSASVGDRVTITCRASQDIDRWLAWYQQKPGKAPKLLIYAASSLQSGVPSRFSGSGSGTDFTLTISTLQPEDFATYYCQQANSLPFTFGGGTKVEIK
In the case of B9, the Kd in [1] amounted to 234 pM; in [2], 882 pM; in [3] it was 154 pM; in test [4], 14.3 pM; in [5], 399 pM. In addition, the T1/2 in test [1] was 2.82 h; in test [2], 3.25 h; in test [3], 2.78 h; in [4], 39.4 h; in test [5] it was 2.61 h. Besides, the “Percent Blocking” value in test [6] was 95.1%; in test [7], 98.4%; in [8] it was 99.6%.
